Results as given in publication PMC8155463.

Target: ZF-AS, fusion protein containing ZF5.3 and human argininosuccinate synthetase (human)
Experiment: SEC

stoichiometry N: 4
Substance: ZF-AS, fusion protein containing ZF5.3 and human argininosuccinate synthetase (enzyme)
